Results taken from the supplement of paper PMC9112550, “Optimization of the antimicrobial peptide Bac7 by deep mutational scanning” (BMC Biology, 2022).

Test system: Escherichia coli TOP10
Assay: shrunken log2 fold change of peptide-encoding DNA abundance (4.5 h post-induction vs induction); higher = less antimicrobial activity (less host growth inhibition)
Conditions: time post-induction: 4.5 h; library: site-saturation at positions 5, 18, 19, 20
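Note: peptides expressed intracellularly from a pBAD plasmid library in pooled LB shake-flask culture, induced with 0.3% L-arabinose, DNA abundance read by NGS, three biological replicates, DESeq2 with apeglm shrinkage.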

Question: Which “shrunken log2 fold change” value does the source give for RRIRQRPPRLPRPRPRPWLDPRP here?
Answer: The value was 0.19.

Question: Which “shrunken log2 fold change” value does the source give for RRIRQRPPRLPRPRPRPWLQPRP here?
Answer: Its value is 0.188.

Question: How did the “shrunken log2 fold change” value turn out when RRIRQRPPRLPRPRPRPWNPPRP was run?
Answer: Its value is -0.0759.

Question: How did the “shrunken log2 fold change” value turn out when RRIRQRPPRLPRPRPRPWNYPRP was run?
Answer: Its value is -0.201.

Question: RRIRQRPPRLPRPRPRPWRFPRP was tested. Which “shrunken log2 fold change” value did it give?
Answer: Its value is -0.113.

Question: RRIRQRPPRLPRPRPRPWTHPRP was tested. Which “shrunken log2 fold change” value did it give?
Answer: The value was 0.00902.

Question: With RRIRQRPPRLPRPRPRPWVFPRP as the sequence, how does the “shrunken log2 fold change” value read?
Answer: Its value is -0.227.

Question: RRIRQRPPRLPRPRPRPWYLPRP was tested. Which “shrunken log2 fold change” value did it give?
Answer: Its value is -0.176.

Question: RRIRQRPPRLPRPRPRPWYMPRP was tested. Which “shrunken log2 fold change” value did it give?
Answer: The value was -0.237.

Question: How did the “shrunken log2 fold change” value turn out when RRIRQRPPRLPRPRPRPYASPRP was run?
Answer: Its value is -0.00547.

Question: How did the “shrunken log2 fold change” value turn out when RRIRQRPPRLPRPRPRPYAVPRP was run?
Answer: Its value is -0.00389.

Question: With RRIRQRPPRLPRPRPRPYCMPRP as the sequence, how does the “shrunken log2 fold change” value read?
Answer: Its value is -0.302.

Question: For RRIRQRPPRLPRPRPRPYCPPRP, which “shrunken log2 fold change” value is on record?
Answer: Its value is -0.422.

Question: How did the “shrunken log2 fold change” value turn out when RRIRQRPPRLPRPRPRPYCVPRP was run?
Answer: The value was -0.00867.

Question: RRIRQRPPRLPRPRPRPYDGPRP was tested. Which “shrunken log2 fold change” value did it give?
Answer: The value was -0.101.

Question: For RRIRQRPPRLPRPRPRPYFAPRP, which “shrunken log2 fold change” value is on record?
Answer: The value was -0.292.

Question: With RRIRQRPPRLPRPRPRPYFFPRP as the sequence, how does the “shrunken log2 fold change” value read?
Answer: Its value is -0.706.

Question: Which “shrunken log2 fold change” value does the source give for RRIRQRPPRLPRPRPRPYFHPRP here?
Answer: Its value is -0.563.

Question: For RRIRQRPPRLPRPRPRPYFVPRP, which “shrunken log2 fold change” value is on record?
Answer: The value was -0.472.

Question: Which “shrunken log2 fold change” value does the source give for RRIRQRPPRLPRPRPRPYGLPRP here?
Answer: Its value is -0.048.

Question: Which “shrunken log2 fold change” value does the source give for RRIRQRPPRLPRPRPRPYGQPRP here?
Answer: The value was -0.239.

Question: For RRIRQRPPRLPRPRPRPYHQPRP, which “shrunken log2 fold change” value is on record?
Answer: Its value is -0.631.

Question: How did the “shrunken log2 fold change” value turn out when RRIRQRPPRLPRPRPRPYILPRP was run?
Answer: Its value is -0.773.

Question: With RRIRQRPPRLPRPRPRPYKRPRP as the sequence, how does the “shrunken log2 fold change” value read?
Answer: Its value is -0.213.

Question: With RRIRQRPPRLPRPRPRPYMIPRP as the sequence, how does the “shrunken log2 fold change” value read?
Answer: The value was 0.00875.

Question: Which “shrunken log2 fold change” value does the source give for RRIRQRPPRLPRPRPRPYNNPRP here?
Answer: Its value is -1.04.

Question: With RRIRQRPPRLPRPRPRPYPLPRP as the sequence, how does the “shrunken log2 fold change” value read?
Answer: The value was -0.73.

Question: Which “shrunken log2 fold change” value does the source give for RRIRQRPPRLPRPRPRPYQVPRP here?
Answer: Its value is -0.0417.

Question: How did the “shrunken log2 fold change” value turn out when RRIRQRPPRLPRPRPRPYQYPRP was run?
Answer: The value was -0.016.

Question: RRIRQRPPRLPRPRPRPYRDPRP was tested. Which “shrunken log2 fold change” value did it give?
Answer: The value was -0.204.

Question: RRIRQRPPRLPRPRPRPYRPPRP was tested. Which “shrunken log2 fold change” value did it give?
Answer: The value was -0.103.

Question: How did the “shrunken log2 fold change” value turn out when RRIRQRPPRLPRPRPRPYRQPRP was run?
Answer: Its value is 0.00902.

Question: Which “shrunken log2 fold change” value does the source give for RRIRQRPPRLPRPRPRPYSEPRP here?
Answer: Its value is 0.0294.

Question: RRIRQRPPRLPRPRPRPYSWPRP was tested. Which “shrunken log2 fold change” value did it give?
Answer: The value was 0.0415.

Question: How did the “shrunken log2 fold change” value turn out when RRIRQRPPRLPRPRPRPYTMPRP was run?
Answer: The value was -0.128.

Question: With RRIRQRPPRLPRPRPRPYTQPRP as the sequence, how does the “shrunken log2 fold change” value read?
Answer: The value was -0.25.

Question: Which “shrunken log2 fold change” value does the source give for RRIRQRPPRLPRPRPRPYVMPRP here?
Answer: Its value is -0.108.

Question: With RRIRQRPPRLPRPRPRPYWKPRP as the sequence, how does the “shrunken log2 fold change” value read?
Answer: The value was 0.000139.

Question: For RRIRQRPPRLPRPRPRPYYPPRP, which “shrunken log2 fold change” value is on record?
Answer: The value was 0.0338.

Question: For RRIRRRPPRLPRPRPRPAAIPRP, which “shrunken log2 fold change” value is on record?
Answer: Its value is 0.181.

Question: For RRIRRRPPRLPRPRPRPADSPRP, which “shrunken log2 fold change” value is on record?
Answer: The value was -0.0331.

Question: With RRIRRRPPRLPRPRPRPAFSPRP as the sequence, how does the “shrunken log2 fold change” value read?
Answer: Its value is -0.00711.

Question: For RRIRRRPPRLPRPRPRPAGFPRP, which “shrunken log2 fold change” value is on record?
Answer: Its value is 0.439.

Question: For RRIRRRPPRLPRPRPRPAHLPRP, which “shrunken log2 fold change” value is on record?
Answer: Its value is 0.178.

Question: RRIRRRPPRLPRPRPRPAIAPRP was tested. Which “shrunken log2 fold change” value did it give?
Answer: Its value is 0.468.

Question: For RRIRRRPPRLPRPRPRPAIFPRP, which “shrunken log2 fold change” value is on record?
Answer: Its value is -0.0696.

Question: How did the “shrunken log2 fold change” value turn out when RRIRRRPPRLPRPRPRPAIKPRP was run?
Answer: Its value is 0.304.

Question: For RRIRRRPPRLPRPRPRPAINPRP, which “shrunken log2 fold change” value is on record?
Answer: The value was -0.0133.

Question: RRIRRRPPRLPRPRPRPAIVPRP was tested. Which “shrunken log2 fold change” value did it give?
Answer: Its value is 0.275.

Question: For RRIRRRPPRLPRPRPRPAKQPRP, which “shrunken log2 fold change” value is on record?
Answer: The value was 0.136.

Question: RRIRRRPPRLPRPRPRPALAPRP was tested. Which “shrunken log2 fold change” value did it give?
Answer: The value was 0.516.

Question: For RRIRRRPPRLPRPRPRPAMAPRP, which “shrunken log2 fold change” value is on record?
Answer: Its value is 0.342.

Question: RRIRRRPPRLPRPRPRPAMGPRP was tested. Which “shrunken log2 fold change” value did it give?
Answer: Its value is 0.142.

Question: Which “shrunken log2 fold change” value does the source give for RRIRRRPPRLPRPRPRPANCPRP here?
Answer: Its value is 0.00326.

Question: RRIRRRPPRLPRPRPRPANFPRP was tested. Which “shrunken log2 fold change” value did it give?
Answer: Its value is -0.0416.

Question: For RRIRRRPPRLPRPRPRPAPDPRP, which “shrunken log2 fold change” value is on record?
Answer: Its value is 1.65.

Question: With RRIRRRPPRLPRPRPRPAPPPRP as the sequence, how does the “shrunken log2 fold change” value read?
Answer: The value was 0.778.

Question: RRIRRRPPRLPRPRPRPAPVPRP was tested. Which “shrunken log2 fold change” value did it give?
Answer: Its value is 1.06.

Question: RRIRRRPPRLPRPRPRPAQSPRP was tested. Which “shrunken log2 fold change” value did it give?
Answer: The value was 0.247.

Question: Which “shrunken log2 fold change” value does the source give for RRIRRRPPRLPRPRPRPARSPRP here?
Answer: Its value is 0.512.

Question: For RRIRRRPPRLPRPRPRPATDPRP, which “shrunken log2 fold change” value is on record?
Answer: The value was 0.204.

Question: Which “shrunken log2 fold change” value does the source give for RRIRRRPPRLPRPRPRPATVPRP here?
Answer: Its value is -0.037.

Question: RRIRRRPPRLPRPRPRPAWKPRP was tested. Which “shrunken log2 fold change” value did it give?
Answer: The value was 0.2.

Question: How did the “shrunken log2 fold change” value turn out when RRIRRRPPRLPRPRPRPAWWPRP was run?
Answer: Its value is 1.01.

Question: For RRIRRRPPRLPRPRPRPAYVPRP, which “shrunken log2 fold change” value is on record?
Answer: The value was 0.0253.

Question: How did the “shrunken log2 fold change” value turn out when RRIRRRPPRLPRPRPRPCAPPRP was run?
Answer: Its value is 0.275.

Question: How did the “shrunken log2 fold change” value turn out when RRIRRRPPRLPRPRPRPCCCPRP was run?
Answer: The value was 0.0202.

Question: For RRIRRRPPRLPRPRPRPCCHPRP, which “shrunken log2 fold change” value is on record?
Answer: Its value is -0.345.

Question: RRIRRRPPRLPRPRPRPCCRPRP was tested. Which “shrunken log2 fold change” value did it give?
Answer: The value was 0.197.

Question: With RRIRRRPPRLPRPRPRPCDFPRP as the sequence, how does the “shrunken log2 fold change” value read?
Answer: Its value is -0.128.

Question: For RRIRRRPPRLPRPRPRPCDQPRP, which “shrunken log2 fold change” value is on record?
Answer: Its value is 0.0305.

Question: With RRIRRRPPRLPRPRPRPCFLPRP as the sequence, how does the “shrunken log2 fold change” value read?
Answer: The value was -0.269.

Question: Which “shrunken log2 fold change” value does the source give for RRIRRRPPRLPRPRPRPCFMPRP here?
Answer: Its value is -0.207.

Question: RRIRRRPPRLPRPRPRPCFQPRP was tested. Which “shrunken log2 fold change” value did it give?
Answer: Its value is -0.0758.

Question: For RRIRRRPPRLPRPRPRPCGDPRP, which “shrunken log2 fold change” value is on record?
Answer: Its value is 0.478.
